# B1: N-terminally His-tagged purine nucleoside phosphorylase from Geobacillus stearothermophilus (enzyme)
# chain: MHHHHHHSSGLVPRGSGMKETAAAKFERQHMDSPDLGTGSENLYFQGAMMSVHIGAKAGEIAERILLPGDPLRAKYIAETFLEGAVCYNEVRGMLGFTGTYKGERISVQGTGMGVPSISIYVNELIQSYGVKTLIRVGTCGAIQPDVRVRDVILAMSASTDSNMNRLIFRGRDYAPTADFHLLRTAYEVGVEKGLALKVGNVFTADMFYNDEPNWETWARYGVLAVEMETAALYTLAAKFGCRALSVLTVSDHILTGEETTAEERQMTFNEMIEVALEAAIRNGA
# notes: hexameric purine nucleoside phosphorylase of Geobacillus stearothermophilus, KEGG GT50_19015, the open reading frame; the printed residue numbers (His4, Arg43, Arg87, Asp203) count from the first Met of this part; The whole construct as printed has 285 residues; The tag was not cleaved in the crystallized protein; also called His-GsePNPase; GsePNPase; source: E. coli BL21 (DE3), purified (IMAC on …)
# Biological target: the molecule itself
# Experiment: crystal structure; His-GsePNPase crystallized without ligands, 25 mg/ml in 50 mM HEPES pH 7.6, 100 mM NaCl, sitting drop, 291 K; three chains in the asymmetric unit, the hexamer generated by crystallographic symmetry; 1.72 Å
protein,measurement,value
B1,stoichiometry N,6
